Measurements published in patent publication US20170101472A1 (Regeneron, published 2017).

Assays:
[1] = biological target: T1, human LAG3 expressed on HEK293 cells (human, UniProt P18627 23-525); assay: cell adherence assay, blocks RAJI (human MHCII) cells on HEK293-hLAG3
T1 construct: also called hLAG3; HEK293/hLAG3
T1 sequence: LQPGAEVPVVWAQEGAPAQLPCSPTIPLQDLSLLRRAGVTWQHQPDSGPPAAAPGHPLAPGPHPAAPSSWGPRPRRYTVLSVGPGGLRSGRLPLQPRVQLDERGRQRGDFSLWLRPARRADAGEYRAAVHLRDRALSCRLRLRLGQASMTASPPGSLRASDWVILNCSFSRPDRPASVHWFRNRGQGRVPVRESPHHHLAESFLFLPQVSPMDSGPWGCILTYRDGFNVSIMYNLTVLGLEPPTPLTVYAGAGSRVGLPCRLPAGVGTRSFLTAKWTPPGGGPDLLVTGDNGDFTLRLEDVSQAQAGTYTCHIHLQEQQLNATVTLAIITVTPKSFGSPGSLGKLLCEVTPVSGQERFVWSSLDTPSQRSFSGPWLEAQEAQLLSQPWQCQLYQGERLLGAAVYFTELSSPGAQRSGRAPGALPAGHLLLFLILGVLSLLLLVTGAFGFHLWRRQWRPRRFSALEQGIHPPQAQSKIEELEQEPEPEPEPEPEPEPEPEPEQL
Experimental: Cells were plated into sterile Nunclon™ Delta 96-Well MicroWell™ Black Optical Bottom Plates (Thermo Scientific). The wells from the perimeter of the plate were not included in the assay design to avoid edge effects.
On the day of treatment, all antibodies were serially (1:3) diluted in RPMI media (without FBS or supplements added). The 9-point dilution ranged between 45 pM to 300 nM, with the last dilution point containing no mAb. […] While the plated HEK293-LAG3 cells were incubating with the test or control antibodies, non-adherent B-cells (RAJI or A20) were labeled with Calcein AM using the following procedure. RAJI and A20 suspension cells were harvested and centrifuged at 1,200 rpm for 5 minutes. Cell pellets were resuspended in 1×PBS and counted. Cells were washed with RPMI, and resuspended in RPMI at a concentration of 10⁶ cells per 1 ml. Cells were labeled by adding 5 μL of Calcein AM per 1 ml of cell suspension and incubated for 30 min at 37° C., at 5% CO₂. […] Subsequently, 10 μL of BD Pharmingen Fc Block (0.5 mg/mL) was added per 1 ml of the Calcein AM labeled cells, which were incubated at RT for 10 minutes. The Calcein AM-stained, Fc-blocked RAJI or A20 cells were resuspended in RPMI to a final concentration of 3×10⁶ cells per 1 ml and subsequently used in the adherence assay.
The labeled suspension cells were incubated with the HEK293 monolayer for 1 hour at 37° C., at 5% CO₂.

[2] = biological target: T1, human LAG3 expressed on HEK293 cells; assay: electrochemiluminescence cell binding, HEK293-hLAG3
Experimental: (§1) To investigate the ability of a panel of anti-LAG3 monoclonal antibodies to bind cell-surface expressed LAG3, an in vitro binding assay utilizing human and monkey LAG3 expressing cell lines in an electrochemiluminescence based detection platform [Meso Scale Diagnostics, Rockville, Md.—(MSD)] was developed.
(§2) Experiments were carried out according to following procedure. Cells from the three cell lines described above were rinsed once in 1×PBS buffer without Ca²⁺/Mg²⁺ followed by 10-minute incubation at 37° C. with Enzyme Free Cell Dissociation Solution. […] Approximately 10,000 cells per well in the cell-washing buffer were seeded into the 96-well carbon electrode plates (MULTI-ARRAY high bind plate, MSD) and incubated for 1 hour at 37° C. to allow the cells to adhere. Nonspecific binding sites were blocked by 2% BSA (w/v) in PBS for 1 hour at room temperature. […] The plates were then washed to remove the unbound antibodies using an AquaMax2000 plate washer (MDS Analytical Technologies). The plate-bound antibodies were detected with a SULFO-TAG™-conjugated anti-human IgG antibody (MSD) for 1 hour at room temperature. After washes, the plates were developed with the Read Buffer (MSD) according to manufacturer's recommended procedure and the luminescent signals were recorded with a SECTOR Imager 6000 (MSD) instrument. The direct binding signals (in relative light units—RLU) were analyzed as a function of the antibody concentration and the data were fitted with a sigmoidal (four-parameter logistic) dose-response model using Graph Pad Prism™ software. The potency of each antibody was determined by calculating EC₅₀.

[3] = biological target: T1, human LAG3 expressed on HEK293 cells; assay: electrochemiluminescence cell binding
Experimental: as §1, §2

[4] = biological target: T2, human LAG3 chimera (extracellular domain of human LAG3 and trans-membrane/cytoplasmic domain of human CD300a) … (human, UniProt P18627 23-450; Q9UGN4 181-299, limits assumed); assay: cell-based or functional assay
T2 sequence (looked up): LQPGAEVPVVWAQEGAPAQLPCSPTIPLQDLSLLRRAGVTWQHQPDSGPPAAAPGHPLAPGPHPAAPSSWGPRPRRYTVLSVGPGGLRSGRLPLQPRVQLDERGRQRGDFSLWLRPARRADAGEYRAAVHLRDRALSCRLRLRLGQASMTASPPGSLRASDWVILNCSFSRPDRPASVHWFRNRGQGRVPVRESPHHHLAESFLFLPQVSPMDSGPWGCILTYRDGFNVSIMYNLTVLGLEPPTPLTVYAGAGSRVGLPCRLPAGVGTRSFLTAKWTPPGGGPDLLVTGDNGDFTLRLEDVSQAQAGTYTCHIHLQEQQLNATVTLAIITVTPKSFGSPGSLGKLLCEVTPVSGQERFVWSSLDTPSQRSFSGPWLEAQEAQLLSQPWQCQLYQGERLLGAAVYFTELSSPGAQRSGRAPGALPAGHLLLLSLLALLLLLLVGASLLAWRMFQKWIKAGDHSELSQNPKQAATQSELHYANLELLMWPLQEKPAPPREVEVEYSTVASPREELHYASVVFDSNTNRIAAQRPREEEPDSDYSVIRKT

B1: H4sH15479P (antibody, V domains shown)
VH: QVQLQQWGAGLLNPSETLSLTCAVYGGAFSDYYWNWIRQPPGKGLEWIGEINHRGSTNYNPSLKSRVTISVDTSKNQFSLRMSSVTAADAAVYYCARGEDYDIWNGYYQEKWGQGTLVTVSS
VL: EIVLTQSPATLSLSPGERATLSCRASQSISTYLAWYQQKPGQAPRLLIYDASKRATGIPARFSGSGSGTDFTLTISSLEPEDFVVYYCHQRSNWPLTFGGGTKVEIK
IC50 [1]: 9.6 nM | EC50 [2]: 13.4 nM | Ratio of 100 nM antibody binding HEK293-hLAG3 to HEK293 cells [3]: 17.8 | EC50, AP1-Luc signaling, bispecific mode [4]: 0.0872 nM | EC50, AP1-Luc signaling, peptide mode [4]: 0.135 nM

B2: H4sH15462P (antibody, V domains shown)
VH: QVQLVQSGAEVKKPGASVKVSCKASGYTFTNYYIHWVRQAPGQGLDWMGIINPGGGNTNYAQKFLGRVTMTRDTSTTTVYMELSSLRSEDTAIYYCARENWNSYFDNWGQGTLVTVSS
VL: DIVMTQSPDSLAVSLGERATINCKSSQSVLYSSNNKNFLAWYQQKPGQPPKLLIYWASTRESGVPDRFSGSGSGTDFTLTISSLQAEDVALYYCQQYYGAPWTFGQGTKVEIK
notes: H4sH = human IgG4 Fc with 2 or more amino acid changes as disclosed in US20140243504
IC50 [1]: 2.5 nM | EC50 [2]: 0.853 nM | Ratio of 100 nM antibody binding HEK293-hLAG3 to HEK293 cells [3]: 6.8 | EC50, AP1-Luc signaling, bispecific mode [4]: 0.148 nM | EC50, AP1-Luc signaling, peptide mode [4]: 0.486 nM

B3: H4H15462P (antibody, human IgG4, V domains shown)
VH: QVQLVQSGAEVKKPGASVKVSCKASGYTFTNYYIHWVRQAPGQGLDWMGIINPGGGNTNYAQKFLGRVTMTRDTSTTTVYMELSSLRSEDTAIYYCARENWNSYFDNWGQGTLVTVSS
VL: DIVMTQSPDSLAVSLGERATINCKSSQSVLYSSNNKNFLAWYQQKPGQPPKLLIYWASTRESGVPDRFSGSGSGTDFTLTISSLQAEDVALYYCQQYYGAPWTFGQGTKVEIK
notes: H4H = human IgG4 Fc with S108P hinge mutation
IC50 [1]: 3.2 nM | EC50 [2]: 6.85 nM | Ratio of 100 nM antibody binding HEK293-hLAG3 to HEK293 cells [3]: 2.3 | EC50, AP1-Luc signaling, bispecific mode [4]: 0.224 nM | EC50, AP1-Luc signaling, peptide mode [4]: 0.344 nM

B4: H4H17823P (antibody, human IgG4, V domains shown)
VH: EVQLLESGGGLVQPGGSLRLSCAASGFTFRSYAMSWVRQAPGKGLEWVSVISGGGGRTYYTDSVKGRFTISRDNSKSMLYLQMNSLRAEDTAIYYCAKERVTGIDHYYYGVDVWGQGTTVTVSS
VL: DIQMTQSPSSLSASVGDRVTITCRASQSISSYLNWYQQKPGKAPKLLIYATSSLQSGVPSRFSGSASGTDFTLAISSLQPEDFATYYCQQSYTTPLTFGGGTKVEIK
notes: as for B3
IC50 [1]: 8.6 nM | EC50 [2]: 1.5 nM | Ratio of 100 nM antibody binding HEK293-hLAG3 to HEK293 cells [3]: 5.3 | EC50, AP1-Luc signaling, bispecific mode [4]: > 100 nM | EC50, AP1-Luc signaling, peptide mode [4]: 0.688 nM

B5: H4H17826P2 (antibody, human IgG4, V domains shown)
VH: EVQLVESGGGLVQPGGSLRLSCAASGFTFSSYEMNWVRQAPGKGLEWVSYISSSGNTKDYAGSVKGRVTISRDNAKNLLYLQMNSLRAEDTAVYHCARDGGHYDILTGSMSYYYYALDVWGQGTTVTVSS
VL: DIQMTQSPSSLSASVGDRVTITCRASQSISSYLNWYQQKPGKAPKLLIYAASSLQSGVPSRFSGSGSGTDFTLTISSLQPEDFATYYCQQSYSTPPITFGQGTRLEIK
notes: as for B3
IC50 [1]: 27 nM | EC50 [2]: 3.48 nM | Ratio of 100 nM antibody binding HEK293-hLAG3 to HEK293 cells [3]: 7 | EC50, AP1-Luc signaling, bispecific mode [4]: 266 nM | EC50, AP1-Luc signaling, peptide mode [4]: 8.83 nM

B6: H4H17828P2 (antibody, human IgG4, V domains shown)
VH: EVQLVESGGGLVQPGGSLRLSCAASGFTFKTYAMSWVRQAPGRGLEWVSGISGSGSTSYYADSVKGRFTISRDNYKKTLSLQMNSLRAEDTAVYYCALDIMATVGGLFNNWGQGTLVTVSS
VL: not shown
notes: as for B3
IC50 [1]: 11 nM | EC50 [2]: 1.2 nM | Ratio of 100 nM antibody binding HEK293-hLAG3 to HEK293 cells [3]: 8.7 | EC50, AP1-Luc signaling, bispecific mode [4]: > 100 nM | EC50, AP1-Luc signaling, peptide mode [4]: 4.91 nM
